Reference: CN111909265A (INST MILITARY MEDICINE ACADEMY MILITARY SCIENCES PLA, dated 2020)

How the values were obtained:
破伤风类毒素 (TT) [1] = target: T1, 破伤风类毒素 (TT) (破伤风梭菌 (C.tetani), UniProt P04958 2-1315)
[2] = target: T2, 破伤风毒素重链C端结构域 (TeNT-HC, GenBank:AF154828) (破伤风梭菌 (C.tetani), UniProt P04958 865-1315); test: ELISA, coated TeNT-HC 1 μg/mL, T9-6 titrated 1:3 from 3.3 μg/mL
T2 sequence: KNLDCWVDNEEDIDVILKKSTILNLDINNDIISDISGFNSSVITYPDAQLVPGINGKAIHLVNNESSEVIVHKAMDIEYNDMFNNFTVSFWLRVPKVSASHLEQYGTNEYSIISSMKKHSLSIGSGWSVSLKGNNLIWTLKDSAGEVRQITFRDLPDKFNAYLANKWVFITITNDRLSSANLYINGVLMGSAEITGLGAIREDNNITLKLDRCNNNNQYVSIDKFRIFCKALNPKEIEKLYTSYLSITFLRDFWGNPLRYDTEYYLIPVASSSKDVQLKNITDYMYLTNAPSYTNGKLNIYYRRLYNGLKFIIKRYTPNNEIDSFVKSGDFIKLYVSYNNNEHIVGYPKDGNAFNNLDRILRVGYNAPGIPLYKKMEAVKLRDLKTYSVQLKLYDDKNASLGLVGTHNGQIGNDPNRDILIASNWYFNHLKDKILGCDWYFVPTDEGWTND

破伤风类毒素 (TT) [3] = target: T1, 破伤风类毒素 (TT); test: ELISA, coated TT 1 μg/mL, T9-6 titrated 1:3 from 3.3 μg/mL

T1 sequence (P04958 2-457 limits assumed): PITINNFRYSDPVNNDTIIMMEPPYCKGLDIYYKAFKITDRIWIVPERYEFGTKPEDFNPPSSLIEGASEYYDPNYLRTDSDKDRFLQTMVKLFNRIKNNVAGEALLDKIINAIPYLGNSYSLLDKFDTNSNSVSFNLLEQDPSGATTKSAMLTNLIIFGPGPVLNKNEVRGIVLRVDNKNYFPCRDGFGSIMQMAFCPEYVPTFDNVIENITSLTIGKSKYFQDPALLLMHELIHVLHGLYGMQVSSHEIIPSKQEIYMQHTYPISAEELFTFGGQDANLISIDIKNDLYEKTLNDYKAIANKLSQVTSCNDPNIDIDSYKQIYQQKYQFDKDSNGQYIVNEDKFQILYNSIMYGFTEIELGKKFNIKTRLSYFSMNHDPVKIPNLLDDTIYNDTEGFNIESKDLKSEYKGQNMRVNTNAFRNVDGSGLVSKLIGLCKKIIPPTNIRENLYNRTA

B1: T9-6 人源抗破伤风毒素单克隆抗体 (antibody, V domains shown)
VH: QLVQSGGGLIQPGGSLRLSCAASGSGFSVSSNYMTWVRQAPGKGLEWVAVIYRNGSTNYADSVRGRFTISRDNSKNTVFVQMNRLRVEDTAVYYCARDFVVVVSTGPEVSYYSYGMDVWGQGTMVTGSS
VL: DIVMTQSPSSLSASVGDRVTITCRASQGISDYLSWYQQKPGKAPKRLIYGTSSLDSGVPSRFSGSGSGTEFTLTISSLQPEDVATYYCLQHHGFPRTFGQGTKVDIKR
Q: Which Kd (破伤风类毒素 (TT) [1]) does the source give for B1 here?
A: Its Kd is 0.397 nM.

Q: And the EC50 [2]?
A: Its EC50 is 3.45 ng/mL.

Q: What about the EC50 (破伤风类毒素 (TT) [3]) of the same binder?
A: Its EC50 is 6.18 ng/mL.
